Target: T1, rDmeR (Vibrio parahaemolyticus RIMD 2210633) (UniProt Q87GM9)
T1 sequence: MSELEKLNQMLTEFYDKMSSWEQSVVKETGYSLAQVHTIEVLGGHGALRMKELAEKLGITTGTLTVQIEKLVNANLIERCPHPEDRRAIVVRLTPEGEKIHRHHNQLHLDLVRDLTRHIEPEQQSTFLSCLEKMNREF
Assay: EMSA
Conditions: 10 mM Tris pH 7.4, 150 mM NaCl, 0.1 mM DTT, 0.1 mM EDTA or 0.5 mM CoSO4, 200 ng poly(dI:dC), 20 ng DNA, 0-1.0 ug rDmeR in 20 uL, 25 C 30 min, 6% native PAGE

Row | Sequence | binding
1 | CAAGGGCAACATCTTACAGCCATGACCGGTAAACAATGCATTTACCTAATTGACGACTTTGCGTCGGAATTAGATAGCCAACGTCGCAAGCGTCTTGCAGATTGCTTGAAAGAGACAGGCGCACAAGTATTTGTAAGCTCTATCACTGAAAACCAAATCGCCGACATGCTCGACGATAATGGCAAATTGTTTCATGTGGAACATGGCAGGATAGA (double strand) [PgyrB promoter probe] | no binding
2 | TAAGCGGCTGATTCCCAAACAAGGCCGCATATGTTCATGCGGGGAGGCATCAGATTGGCCAATCTTGAGTGCAGTGATGAACGCCTTTCTTAGTTTTCTATGTTGACTTTGTTTGATGGTCAAACTAAATTTAAATCAAATATTTTGATTATCAAACAAAATGAGCAATAACGATATGATTTATCTATGGCAATAGCACAACACACGC (double strand) [PdmeRF promoter probe (WT)] | binds

Source: paper PMC9820535
